According to patent US20210115098A1:

Target: activin-like kinase 4 and/or 5 receptor (ALK4/5)
Assay: cell-based or functional assay

Smad-2/3 responsive luciferase reporter, maximal response at 50 ng/mL relative to Mutant 1: 10 % reduction
Substance: Cumulin-like GDF9_H369N (Mutant 7) (from UniProt O60383 30-318) (ligand)
